Source: the Human Domainome abundance scans (Beltran et al. 2025)
± gives the uncertainty stated by the source.

B1: RAS guanyl-releasing protein 1, residues 539 to 593; numbered along this chain, O95267 (parent)
chain: GFPHNFQETTYLKPTFCDNCAGFLWGVIKQGYRCKDCGMNCHKQCKDLVVFECKK

Variants of: B1
Assay: abundance fitness (aPCA) (normalised: wild type 0, dead -1); higher = more abundant; growth selection in yeast, the domain comes from the species named
Conditions: Homo sapiens

Compared with GFPHNFQETTYLKPTWCDNCAGFLWGVIKQGYRCKDCGMNCHKQCKDLVVFECKK [F16W], GFPHNFQETTYLKPTYCDNCAGFLWGVIKQGYRCKDCGMNCHKQCKDLVVFECKK [F16Y] is higher in abundance fitness: -0.376 ± 0.12 for the first, 0.024 ± 0.12 for the second.

GFPHNFQETTYLKPTFADNCAGFLWGVIKQGYRCKDCGMNCHKQCKDLVVFECKK [C17A] and GFPHNFQETTYLKPTFDDNCAGFLWGVIKQGYRCKDCGMNCHKQCKDLVVFECKK [C17D] are within error of each other in abundance fitness: -1.09 ± 0.09 for the first, -0.986 ± 0.12 for the second.

GFPHNFQETTYLKPTFEDNCAGFLWGVIKQGYRCKDCGMNCHKQCKDLVVFECKK [C17E] and GFPHNFQETTYLKPTFFDNCAGFLWGVIKQGYRCKDCGMNCHKQCKDLVVFECKK [C17F] are within error of each other in abundance fitness: -0.826 ± 0.4 for the first, -1.14 ± 0.24 for the second.

GFPHNFQETTYLKPTFGDNCAGFLWGVIKQGYRCKDCGMNCHKQCKDLVVFECKK [C17G] and GFPHNFQETTYLKPTFHDNCAGFLWGVIKQGYRCKDCGMNCHKQCKDLVVFECKK [C17H] are within error of each other in abundance fitness: -0.99 ± 0.27 for the first, -0.784 ± 0.26 for the second.

GFPHNFQETTYLKPTFIDNCAGFLWGVIKQGYRCKDCGMNCHKQCKDLVVFECKK [C17I] and GFPHNFQETTYLKPTFLDNCAGFLWGVIKQGYRCKDCGMNCHKQCKDLVVFECKK [C17L] are within error of each other in abundance fitness: -0.869 ± 0.31 for the first, -1.26 ± 0.27 for the second.

Compared with GFPHNFQETTYLKPTFMDNCAGFLWGVIKQGYRCKDCGMNCHKQCKDLVVFECKK [C17M], GFPHNFQETTYLKPTFPDNCAGFLWGVIKQGYRCKDCGMNCHKQCKDLVVFECKK [C17P] is lower in abundance fitness: -0.578 ± 0.1 for the first, -1.13 ± 0.33 for the second.

GFPHNFQETTYLKPTFQDNCAGFLWGVIKQGYRCKDCGMNCHKQCKDLVVFECKK [C17Q] and GFPHNFQETTYLKPTFRDNCAGFLWGVIKQGYRCKDCGMNCHKQCKDLVVFECKK [C17R] are within error of each other in abundance fitness: -0.755 ± 0.1 for the first, -0.851 ± 0.15 for the second.

GFPHNFQETTYLKPTFSDNCAGFLWGVIKQGYRCKDCGMNCHKQCKDLVVFECKK [C17S] and GFPHNFQETTYLKPTFTDNCAGFLWGVIKQGYRCKDCGMNCHKQCKDLVVFECKK [C17T] are within error of each other in abundance fitness: -0.948 ± 0.18 for the first, -0.821 ± 0.37 for the second.

GFPHNFQETTYLKPTFVDNCAGFLWGVIKQGYRCKDCGMNCHKQCKDLVVFECKK [C17V] and GFPHNFQETTYLKPTFWDNCAGFLWGVIKQGYRCKDCGMNCHKQCKDLVVFECKK [C17W] are within error of each other in abundance fitness: -0.878 ± 0.12 for the first, -1.27 ± 0.34 for the second.

Going from GFPHNFQETTYLKPTFCANCAGFLWGVIKQGYRCKDCGMNCHKQCKDLVVFECKK [D18A] to GFPHNFQETTYLKPTFCCNCAGFLWGVIKQGYRCKDCGMNCHKQCKDLVVFECKK [D18C], the abundance fitness falls from -0.016 ± 0.088 to -0.253 ± 0.1.

GFPHNFQETTYLKPTFCENCAGFLWGVIKQGYRCKDCGMNCHKQCKDLVVFECKK [D18E] and GFPHNFQETTYLKPTFCFNCAGFLWGVIKQGYRCKDCGMNCHKQCKDLVVFECKK [D18F] are within error of each other in abundance fitness: -0.087 ± 0.074 for the first, -0.063 ± 0.099 for the second.

GFPHNFQETTYLKPTFCGNCAGFLWGVIKQGYRCKDCGMNCHKQCKDLVVFECKK [D18G] and GFPHNFQETTYLKPTFCHNCAGFLWGVIKQGYRCKDCGMNCHKQCKDLVVFECKK [D18H] are within error of each other in abundance fitness: -0.294 ± 0.086 for the first, -0.383 ± 0.27 for the second.

GFPHNFQETTYLKPTFCINCAGFLWGVIKQGYRCKDCGMNCHKQCKDLVVFECKK [D18I] and GFPHNFQETTYLKPTFCKNCAGFLWGVIKQGYRCKDCGMNCHKQCKDLVVFECKK [D18K] are within error of each other in abundance fitness: -0.142 ± 0.09 for the first, -0.017 ± 0.12 for the second.

GFPHNFQETTYLKPTFCLNCAGFLWGVIKQGYRCKDCGMNCHKQCKDLVVFECKK [D18L] and GFPHNFQETTYLKPTFCMNCAGFLWGVIKQGYRCKDCGMNCHKQCKDLVVFECKK [D18M] are within error of each other in abundance fitness: -0.013 ± 0.095 for the first, -0.079 ± 0.096 for the second.

Going from GFPHNFQETTYLKPTFCNNCAGFLWGVIKQGYRCKDCGMNCHKQCKDLVVFECKK [D18N] to GFPHNFQETTYLKPTFCPNCAGFLWGVIKQGYRCKDCGMNCHKQCKDLVVFECKK [D18P], the abundance fitness falls from -0.026 ± 0.096 to -0.732 ± 0.12.

GFPHNFQETTYLKPTFCQNCAGFLWGVIKQGYRCKDCGMNCHKQCKDLVVFECKK [D18Q] and GFPHNFQETTYLKPTFCRNCAGFLWGVIKQGYRCKDCGMNCHKQCKDLVVFECKK [D18R] are within error of each other in abundance fitness: -0.001 ± 0.07 for the first, -0.059 ± 0.084 for the second.

Compared with GFPHNFQETTYLKPTFCSNCAGFLWGVIKQGYRCKDCGMNCHKQCKDLVVFECKK [D18S], GFPHNFQETTYLKPTFCTNCAGFLWGVIKQGYRCKDCGMNCHKQCKDLVVFECKK [D18T] is higher in abundance fitness: 0.028 ± 0.084 for the first, 0.205 ± 0.07 for the second.

First: GFPHNFQETTYLKPTFCVNCAGFLWGVIKQGYRCKDCGMNCHKQCKDLVVFECKK [D18V]
Second: GFPHNFQETTYLKPTFCWNCAGFLWGVIKQGYRCKDCGMNCHKQCKDLVVFECKK [D18W]
The abundance fitness of the first is lower: -0.132 ± 0.088 for the first, 0.123 ± 0.11 for the second.

Going from GFPHNFQETTYLKPTFCYNCAGFLWGVIKQGYRCKDCGMNCHKQCKDLVVFECKK [D18Y] to GFPHNFQETTYLKPTFCDACAGFLWGVIKQGYRCKDCGMNCHKQCKDLVVFECKK [N19A], the abundance fitness rises from -0.315 ± 0.17 to 0.065 ± 0.084.

GFPHNFQETTYLKPTFCDCCAGFLWGVIKQGYRCKDCGMNCHKQCKDLVVFECKK [N19C] and GFPHNFQETTYLKPTFCDDCAGFLWGVIKQGYRCKDCGMNCHKQCKDLVVFECKK [N19D] are within error of each other in abundance fitness: -0.061 ± 0.093 for the first, -0.101 ± 0.11 for the second.

GFPHNFQETTYLKPTFCDECAGFLWGVIKQGYRCKDCGMNCHKQCKDLVVFECKK [N19E] and GFPHNFQETTYLKPTFCDFCAGFLWGVIKQGYRCKDCGMNCHKQCKDLVVFECKK [N19F] are within error of each other in abundance fitness: 0.11 ± 0.1 for the first, 0.068 ± 0.094 for the second.

GFPHNFQETTYLKPTFCDGCAGFLWGVIKQGYRCKDCGMNCHKQCKDLVVFECKK [N19G] and GFPHNFQETTYLKPTFCDHCAGFLWGVIKQGYRCKDCGMNCHKQCKDLVVFECKK [N19H] are within error of each other in abundance fitness: 0.134 ± 0.051 for the first, -0.02 ± 0.12 for the second.

GFPHNFQETTYLKPTFCDICAGFLWGVIKQGYRCKDCGMNCHKQCKDLVVFECKK [N19I] and GFPHNFQETTYLKPTFCDKCAGFLWGVIKQGYRCKDCGMNCHKQCKDLVVFECKK [N19K] are within error of each other in abundance fitness: -0.163 ± 0.17 for the first, -0.052 ± 0.075 for the second.

GFPHNFQETTYLKPTFCDLCAGFLWGVIKQGYRCKDCGMNCHKQCKDLVVFECKK [N19L] and GFPHNFQETTYLKPTFCDMCAGFLWGVIKQGYRCKDCGMNCHKQCKDLVVFECKK [N19M] are within error of each other in abundance fitness: -0.018 ± 0.084 for the first, 0.135 ± 0.11 for the second.
